Measured values reported in article PMC12062102, “Dual Targeting of Neuropilin-1 and Glucose Transporter for Efficient Fluorescence Imaging of Cancer” (Molecular Imaging and Biology, 2025).

What was measured:
[1] = 3 μM in 10% (v/v) mouse serum, 37°C, 48 h incubation, UV-vis absorbance A/A0
Procedure: NGF solution (3 μM) was prepared in PBS and 10% (v/v) mouse serum, and the initial absorbance (A0) was measured. Then NGF was incubated with PBS and mouse serum at 37°C, and the absorbance (A) was recorded at 4, 8, 12, 24, and 48 h, respectively. The stability of the probe was evaluated based on the ratio of A/A0. For the photostability, NGF solution (3 μM) was prepared in methanol, and the initial absorbance (A0) was measured. Then NGF was then subjected to laser irradiation, and the absorbance measurements (A) were recorded at 5, 10, 15, 20, and 30 min, respectively. The stability of the probe was evaluated based on the ratio of A/A0.

[2] = tested on: MDA-MB-231 cells; assay: Flow cytometry / confocal imaging and blocking study in MDA-MB-231 cells; format: cell-based, human
Procedure: (§1) MDA-MB-231, HCT116, and NCI-H1299 cells in logarithmic growth phase were seeded in 6-well plate and incubated at 37 ℃ in a 5% CO2 humidified incubator for 12 h, then the cells were fixed with 4% paraformaldehyde containing 1% TritonX-100 overnight at 4 ℃. Next, cells were treated with NGF (2 μM) for 1 h, stained with DAPI for 5 min, and finally the fluorescent images were captured using laser scanning fluorescence confocal microscopy (Olympus IX51). Images were captured using a U-LH100 HG mercury lamp with a WIY (Cy5 channel) filter and a 200 ms exposure time. A 10 × eyepiece and a 20 × objective were used for a total magnification of 200 × . A scale bar of 50 μm was included for reference.
(§2) Cancer cells MDA-MB-231, NCI-H1299 and HCT116 in logarithmic growth phase were harvested and transferred to sterile tubes with DMEM medium at a density of 2 × 10^5 cells per tube. […] Subsequently, the cells were resuspended in 0.5 mL of PBS buffer, and about 2 × 10^4 target cells were extracted for flow cytometry analysis (FACS Verse, BD) with FL4 channel, and the mean fluorescence intensity was quantified using FlowJo software.
(§3) For the blocking study, the cells of HCT116, NCI-H1299, and MDA-MB-231 were pretreated with the D-glucose (50 μM), NRP1 peptide (50 μM), and D-glucose + NRP1 peptide (50 μM) for 30 min. […] Then the fluorescence signals were detected by flow cytometry and microscopy imaging.

[3] = tested on: NCI-H1299 tumor; assay: In vivo IVIS fluorescence imaging, NCI-H1299 tumor-bearing mice; parameters: species or system Balb/c nude mice; settings: 25 μM NGF, 200 μL i.v., n = 3–5
Procedure: (§4) The SPF female Balb/c nude mice (4–5 weeks old) were obtained from Changzhou Cavens Laboratory Animal Co., LTD (Changzhou, China). Tumor models were created by subcutaneously injecting 0.5 ~ 1 × 10^7 MDA-MB-231, HCT116 or NCI-H1299 cells in 100 μL PBS into the right forelimb of the nude mice. Imaging studies were conducted once the tumor volume reached approximately 100 mm^3. All animal experiments requiring the use of mice were approved by the animal care committee of Shanghai University (ECSHU 2024–004).
(§5) Animal fluorescence imaging was conducted using an IVIS Imaging spectroscopy system (PerkinElmer Inc., USA). MDA-MB-231, HCT116, and NCI-H1299 tumor-bearing mice (n = 3–5) were intravenously injected with 25 μM NGF (200 μL) via the tail vein. Following injection, mice were anesthetized with a 2% v/v isoflurane/oxygen mixture at a flow rate of […] to maintain stable physiological conditions during imaging. Subsequently, long-term optical imaging observations of tumor-bearing mice were performed using the IVIS Spectrum imaging system (PerkinElmer, USA). Imaging scans were conducted at various time points (1, 2, 4, 6, 8, 12, 24, 36, 48, 60, and 72 h) after NGF administration. The excitation wavelength (λex) was set to 745 nm and the emission wavelength (λem) was set to 840 nm for optimal fluorescence signal acquisition.

[4] = Photophysical properties (absorption, emission, ε, ΦF); format: physicochemical
Procedure: To investigate the spectral characteristics of probe, NGF (25 μM) was prepared using methanol, and the NGF stock solution was diluted to various concentrations (0.5, 1, 2, 3, and 4 μM) with both methanol or water as solvents. The absorption spectra at various concentrations were recorded using a UV–vis absorption spectrometer. To better understand how the solvent affects the fluorescence properties of NGF, the fluorescence emission spectra of 4 μM NGF were analyzed in both methanol and water. The molar absorption coefficient (ε), fluorescence quantum yield (ΦF), as well as the stability of NGF were investigated, and the details were provided in the Supporting Information.
where, Ix is the measured integrated emission intensity; η is the refractive index of the solvent; A is the absorbance of the solution; the subscript x denotes the probe; st denotes the reference compound.

[5] = In vivo IVIS fluorescence imaging, signal clearance and persistence in tumor-bearing mice; parameters: species or system Balb/c nude mice; settings: 25 μM NGF, 200 μL i.v.
Procedure: as §4, §5

[6] = Aqueous stability of NGF in PBS; format: physicochemical; settings: 3 μM in PBS, 37°C, 48 h incubation, UV-vis absorbance A/A0
[7] = tested on: HCT116 tumor; assay: In vivo IVIS fluorescence imaging, HCT116 tumor-bearing mice; parameters: species or system Balb/c nude mice; settings: 25 μM NGF
Procedure: as §4, §5

[8] = tested on: MDA-MB-231 tumor; assay: In vivo IVIS fluorescence imaging, MDA-MB-231 tumor-bearing mice; parameters: species or system Balb/c nude mice; settings: 25 μM NGF, 200 μL i.v., imaging up to 72 h
Procedure: as §4, §5

[9] = Procedure: Probe NGF (10 μM) was added to a mixture of H2O (0.5 mL) and n-octanol (0.5 mL), shaken thoroughly, and centrifuged for 3 min. The absorbance (A) of NGF in both H2O and n-octanol was measured using a UV-vis absorption spectrometer.
[10] = Photostability of NGF under laser irradiation; format: physicochemical; settings: 3 μM in methanol, laser irradiation 30 min, UV-vis absorbance A/A0
[11] = tested on: NCI-H1299 cells; assay: Confocal fluorescence imaging in NCI-H1299 cells; format: cell-based, human; settings: NCI-H1299 (NRP1- and GLUT1-negative), NGF 2 μM, 1 h
Procedure: as §1
Cancer cells MDA-MB-231, NCI-H1299 and HCT116 in logarithmic growth phase were harvested and transferred to sterile tubes with DMEM medium at a density of 2 × 10^5 cells per tube. Various concentrations of NGF (0.125, 0.25, 0.5, 1, and 2 μM) were added, and the cells were incubated in a humidified incubator with 5% CO2 at 37 ℃ for 1 h. Subsequently, the cells were resuspended in 0.5 mL of PBS buffer, and about 2 × 10^4 target cells were extracted for flow cytometry analysis (FACS Verse, BD) with FL4 channel, and the mean fluorescence intensity was quantified using FlowJo software.

[12] = tested on: HCT116 cells; assay: Flow cytometry / confocal imaging and blocking study in HCT116 cells; format: cell-based, human
Procedure: as §1, §2, §3

CC(C)C[C@H](NC(=O)[C@H](C)NC(=O)CCOCCOCCOCCOCCn1cc(CCC[N+]2=C(C=CC3=C(Cl)C(=CC=C4N(CCCc5cn([C@H]6C(O)O[C@H](CO)[C@@H](O)[C@@H]6O)nn5)c5ccccc5C4(C)C)CCC3)C(C)(C)c3ccccc32)nn1)C(=O)N[C@@H](CCCCN)C(=O)N[C@@H](C)C(=O)N[C@@H](CC(=O)O)C(=O)N[C@@H](CCCCN)C(=O)O (some centres unmarked) [NGF]
absorbance as % of initial absorbance (A0) in 10% mouse serum [1]: 95.2% | uptake relative to mono-receptor block conditions ([2]; MDA-MB-231, NGF 2 μM 1 h, pre-treatment 30 min with D-glucose (50 μM) or NRP1 peptide (50 μM), flow cytometry mean fluorescence intensity): 1.7–2.5 times | cellular internalization (confocal fluorescence) ([2]; MDA-MB-231, NGF 2 μM, 1 h): significantly internalized | tumor fluorescence intensity [3]: comparatively weak | fluorescence intensity in methanol ([4]; 4 μM in methanol): 12365 a.u. | maximum absorbance ([4]; 4 μM in methanol): 1.06 | absorption peak (λmax) in MeOH ([4]; MeOH): 783 nm | fluorescence emission peak (λem) in MeOH ([4]; MeOH, λex = 750 nm): 807 nm | aggregation in aqueous solution ([4]; inferred from lower absorbance and fluorescence in H2O than in MeOH): some degree of aggregation | extinction coefficient ε in n-octanol ([4]; n-octanol): 124367 M⁻¹ cm⁻¹ | time for fluorescent signal to clear from non-target organs [5]: ≤ 12 h | absorbance as % of initial absorbance (A0) in PBS [6]: 97.7% | time post-injection at which tumor could be clearly identified ([7]; 200 μL i.v. tail vein, n = 3–5, λex 745 nm / λem 840 nm): 1 h | retention in tumor post-injection ([7]; 200 μL i.v., imaging up to 72 h): at least 72 h | retention in tumor post-injection [8]: at least 72 h | logP [9]: -0.95 ± 0.07 | absorbance as % of A0 after laser irradiation [10]: 56.7% | cellular fluorescence (confocal) [11]: minimal fluorescence | uptake relative to mono-receptor block conditions ([12]; HCT116, NGF 2 μM 1 h, pre-treatment 30 min with D-glucose (50 μM) or NRP1 peptide (50 μM), flow cytometry mean fluorescence intensity): 1.4–1.5 times | cellular internalization (confocal fluorescence) ([12]; HCT116, NGF 2 μM, 1 h): substantial internalization
